Data as given in article PMC4309369 (Cell reports, 2014).

Columns and labels:
[1] = target: T1, SND1 SN1/2 domains (16–339) (human, UniProt Q7KZF4 16-339); test: crystal structure
T1 sequence (looked up): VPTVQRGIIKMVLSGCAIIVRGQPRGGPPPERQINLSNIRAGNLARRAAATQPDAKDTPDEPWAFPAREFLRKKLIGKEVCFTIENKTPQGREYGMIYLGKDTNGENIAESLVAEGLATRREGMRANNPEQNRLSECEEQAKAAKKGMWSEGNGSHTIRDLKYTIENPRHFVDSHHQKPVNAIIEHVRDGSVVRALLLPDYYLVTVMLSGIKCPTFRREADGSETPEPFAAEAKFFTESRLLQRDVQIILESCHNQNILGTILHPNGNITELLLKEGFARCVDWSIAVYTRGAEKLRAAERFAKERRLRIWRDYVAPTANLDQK

[2] = target: T1, SND1 SN1/2 domains (16–339); test: ITC
SND1 (16–339) R324E = target: T2, SND1 (16–339) R324E (human, UniProt Q7KZF4 16-339, R324E); test: pull-down
T2 sequence (looked up): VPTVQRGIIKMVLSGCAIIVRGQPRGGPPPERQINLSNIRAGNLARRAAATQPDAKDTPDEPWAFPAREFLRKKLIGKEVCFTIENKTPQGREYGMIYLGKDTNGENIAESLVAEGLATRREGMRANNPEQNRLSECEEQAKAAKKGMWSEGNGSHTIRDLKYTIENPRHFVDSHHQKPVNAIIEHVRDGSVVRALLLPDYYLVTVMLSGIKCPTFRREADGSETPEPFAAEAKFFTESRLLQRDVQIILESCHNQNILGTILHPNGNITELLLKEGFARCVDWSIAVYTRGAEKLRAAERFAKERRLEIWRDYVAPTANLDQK

SND1 (16–339) R324A = target: T3, SND1 (16–339) R324A (human, UniProt Q7KZF4 16-339, R324A); test: pull-down
T3 sequence (looked up): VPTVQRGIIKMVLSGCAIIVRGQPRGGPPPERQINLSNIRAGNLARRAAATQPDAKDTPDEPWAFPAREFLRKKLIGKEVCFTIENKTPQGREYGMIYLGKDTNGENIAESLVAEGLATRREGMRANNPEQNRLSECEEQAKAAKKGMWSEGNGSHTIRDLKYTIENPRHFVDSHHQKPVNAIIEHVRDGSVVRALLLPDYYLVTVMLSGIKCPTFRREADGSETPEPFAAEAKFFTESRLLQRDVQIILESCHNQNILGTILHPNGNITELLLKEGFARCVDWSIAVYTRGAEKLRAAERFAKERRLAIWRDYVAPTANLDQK

SND1 (16–339) R316E = target: T4, SND1 (16–339) R316E (human, UniProt Q7KZF4 16-339, R316E); test: pull-down
T4 sequence (looked up): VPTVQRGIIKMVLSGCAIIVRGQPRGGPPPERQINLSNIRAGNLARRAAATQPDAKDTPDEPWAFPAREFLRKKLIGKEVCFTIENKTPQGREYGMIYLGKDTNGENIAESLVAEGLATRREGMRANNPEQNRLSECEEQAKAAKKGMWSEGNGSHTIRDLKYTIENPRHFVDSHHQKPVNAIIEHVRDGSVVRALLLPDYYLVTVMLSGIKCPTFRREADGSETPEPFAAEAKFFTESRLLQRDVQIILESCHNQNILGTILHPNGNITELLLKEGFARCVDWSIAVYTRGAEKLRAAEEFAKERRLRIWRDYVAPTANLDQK

[3] = target: T1, SND1 SN1/2 domains (16–339); test: pull-down

B1: MTDH (386–407) (peptide, UniProt Q86UE4 386-407, looked up)
peptide: SSADPNSDWNAPAEEWGNWVDE
- binding result [1]: binds

B2: GST-tagged MTDH (364–582) (domain or fragment, human, UniProt Q86UE4 364-582, looked up)
chain: YQWDVSRNQPYIDDEWSGLNGLSSADPNSDWNAPAEEWGNWVDEERASLLKSQEPIPDDQKVSDDDKEKGEGALPTGKSKKKKKKKKKQGEDNSTAQDTEELEKEIREDLPVNTSKTRPKQEKAFSLKTISTSDPAEVLVKNSQPIKTLPPATSTEPSVILSKSDSDKSSSQVPPILQETDKSKSNTKQNSVPPSQTKSETSWESPKQIKKKKKARRET
- Kd [2]: ~600 nM
- binding result (SND1 (16–339) R324E): binds
- binding result (SND1 (16–339) R324A): binds
- binding result (SND1 (16–339) R316E): binds

B3: GST-tagged MTDH (364–582) N395A (domain or fragment, human, UniProt Q86UE4 364-582, looked up)
chain: YQWDVSRNQPYIDDEWSGLNGLSSADPNSDWAAPAEEWGNWVDEERASLLKSQEPIPDDQKVSDDDKEKGEGALPTGKSKKKKKKKKKQGEDNSTAQDTEELEKEIREDLPVNTSKTRPKQEKAFSLKTISTSDPAEVLVKNSQPIKTLPPATSTEPSVILSKSDSDKSSSQVPPILQETDKSKSNTKQNSVPPSQTKSETSWESPKQIKKKKKARRET
- binding result [3]: binds

B4: GST-tagged MTDH (364–582) D389R (domain or fragment, human, UniProt Q86UE4 364-582, looked up)
chain: YQWDVSRNQPYIDDEWSGLNGLSSARPNSDWNAPAEEWGNWVDEERASLLKSQEPIPDDQKVSDDDKEKGEGALPTGKSKKKKKKKKKQGEDNSTAQDTEELEKEIREDLPVNTSKTRPKQEKAFSLKTISTSDPAEVLVKNSQPIKTLPPATSTEPSVILSKSDSDKSSSQVPPILQETDKSKSNTKQNSVPPSQTKSETSWESPKQIKKKKKARRET
- binding result [3]: binds

B5: GST-tagged MTDH (364–582) E400R (domain or fragment, human, UniProt Q86UE4 364-582, looked up)
chain: YQWDVSRNQPYIDDEWSGLNGLSSADPNSDWNAPAERWGNWVDEERASLLKSQEPIPDDQKVSDDDKEKGEGALPTGKSKKKKKKKKKQGEDNSTAQDTEELEKEIREDLPVNTSKTRPKQEKAFSLKTISTSDPAEVLVKNSQPIKTLPPATSTEPSVILSKSDSDKSSSQVPPILQETDKSKSNTKQNSVPPSQTKSETSWESPKQIKKKKKARRET
- binding result [3]: binds

B6: GST-tagged MTDH (364–582) E400A (domain or fragment, human, UniProt Q86UE4 364-582, looked up)
chain: YQWDVSRNQPYIDDEWSGLNGLSSADPNSDWNAPAEAWGNWVDEERASLLKSQEPIPDDQKVSDDDKEKGEGALPTGKSKKKKKKKKKQGEDNSTAQDTEELEKEIREDLPVNTSKTRPKQEKAFSLKTISTSDPAEVLVKNSQPIKTLPPATSTEPSVILSKSDSDKSSSQVPPILQETDKSKSNTKQNSVPPSQTKSETSWESPKQIKKKKKARRET
- binding result [3]: binds

B7: GST-tagged MTDH (364–582) N403A (domain or fragment, human, UniProt Q86UE4 364-582, looked up)
chain: YQWDVSRNQPYIDDEWSGLNGLSSADPNSDWNAPAEEWGAWVDEERASLLKSQEPIPDDQKVSDDDKEKGEGALPTGKSKKKKKKKKKQGEDNSTAQDTEELEKEIREDLPVNTSKTRPKQEKAFSLKTISTSDPAEVLVKNSQPIKTLPPATSTEPSVILSKSDSDKSSSQVPPILQETDKSKSNTKQNSVPPSQTKSETSWESPKQIKKKKKARRET
- binding result [3]: binds
